± gives the standard error. Fewer inactive variants are shown than the library holds.
B1: glmS ribozyme (parent)
chain: AUAAAAGCGCCAGAACUACAGAAAUGUAGUUGACGAGGAGGAGGUUUAUCGAAUUUUCGGCGGAUGCCUCCAAA

How the values were obtained:
Settings in all cases: with glucosamine-6-phosphate
glucosamine-6-phosphate [1] = variants of: B1; experiment: self-cleavage kobs at 160 uM GlcN6P; higher = faster cleavage; RNA array
Method in brief: (§1)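 Tracking of barcoded ribozyme variants used a hybridised Cy3 probe at 37 °C, after in situ transcription by E. coli RNA polymerase on sequenced MiSeq chips. The flowed solution held 40 μM to 10 mM glucosamine-6-phosphate in HEPES/KCl/Mg(OAc)2 buffer, and imaging ran over ~14 h. kobs was taken from exponential decay fits of normalised per-tile medians, and kcat and KM from weighted Michaelis–Menten fits.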

glucosamine-6-phosphate [2] = variants of: B1; experiment: self-cleavage kobs at 640 uM GlcN6P; higher = faster cleavage; RNA array
Method in brief: as §1

glucosamine-6-phosphate [3] = variants of: B1; experiment: self-cleavage kobs at 2500 uM GlcN6P; higher = faster cleavage; RNA array
Method in brief: as §1

glucosamine-6-phosphate [4] = variants of: B1; experiment: self-cleavage kobs at 10000 uM GlcN6P; higher = faster cleavage; RNA array
Method in brief: as §1

Variant	self-cleavage kobs at 160 uM GlcN6P (glucosamine-6-phosphate [1])	self-cleavage kobs at 640 uM GlcN6P (glucosamine-6-phosphate [2])	self-cleavage kobs at 2500 uM GlcN6P (glucosamine-6-phosphate [3])	self-cleavage kobs at 10000 uM GlcN6P (glucosamine-6-phosphate [4])
G37U G44A G66U	< 1e-05 s⁻¹			
G40C G63A	< 1e-05 s⁻¹	< 1e-05 s⁻¹	< 1e-05 s⁻¹	< 1e-05 s⁻¹
A39C G40C A52G	< 1e-05 s⁻¹	< 1e-05 s⁻¹		
G44C C61G	< 1e-05 s⁻¹	< 1e-05 s⁻¹		< 1e-05 s⁻¹
G37U G38C C71U	< 1e-05 s⁻¹	< 1e-05 s⁻¹		
C34G G37A	< 1e-05 s⁻¹	< 1e-05 s⁻¹		
A33C C50A C71G	< 1e-05 s⁻¹			
G43C G60C	< 1e-05 s⁻¹	< 1e-05 s⁻¹	< 1e-05 s⁻¹	
A42C U69A	5.29e-05 ± 2.2e-05 s⁻¹	0.000125 ± 3.8e-05 s⁻¹	0.000182 ± 4.1e-05 s⁻¹	0.0008 ± 0.00018 s⁻¹
G43U G60U U69G	< 1e-05 s⁻¹	< 1e-05 s⁻¹		
C34U C61G	< 1e-05 s⁻¹	< 1e-05 s⁻¹		< 1e-05 s⁻¹
G37A G38U U65C	< 1e-05 s⁻¹			< 1e-05 s⁻¹
A36U G41A U54G	< 1e-05 s⁻¹	< 1e-05 s⁻¹		
G38A A39C G40U G43A U49G U54C	< 1e-05 s⁻¹	< 1e-05 s⁻¹	< 1e-05 s⁻¹	
G40C G60U C67G	< 1e-05 s⁻¹	< 1e-05 s⁻¹	< 1e-05 s⁻¹	
G37C G43C	< 1e-05 s⁻¹	< 1e-05 s⁻¹	< 1e-05 s⁻¹	< 1e-05 s⁻¹
G37C U65A	< 1e-05 s⁻¹	< 1e-05 s⁻¹		
G37C U65C	< 1e-05 s⁻¹	< 1e-05 s⁻¹	< 1e-05 s⁻¹	
A42C A48G U55A	< 1e-05 s⁻¹	< 1e-05 s⁻¹		
G32U C34G G43A	< 1e-05 s⁻¹	< 1e-05 s⁻¹	< 1e-05 s⁻¹	
G41A A53U U54G	0.000102 ± 3.4e-05 s⁻¹	0.000241 ± 8.7e-05 s⁻¹	0.000742 ± 0.0002 s⁻¹	0.000285 ± 7.8e-05 s⁻¹
G38U G41A C58A C61A	< 1e-05 s⁻¹	< 1e-05 s⁻¹		
C34A G38U A53C	< 1e-05 s⁻¹	< 1e-05 s⁻¹	< 1e-05 s⁻¹	
A36U G41A A42U G43U	< 1e-05 s⁻¹	< 1e-05 s⁻¹	< 1e-05 s⁻¹	
G35A U49A	< 1e-05 s⁻¹	< 1e-05 s⁻¹		< 1e-05 s⁻¹
G44U C61A	< 1e-05 s⁻¹	< 1e-05 s⁻¹	< 1e-05 s⁻¹	< 1e-05 s⁻¹

Variant	self-cleavage kobs at 160 uM GlcN6P (glucosamine-6-phosphate [1])	self-cleavage kobs at 640 uM GlcN6P (glucosamine-6-phosphate [2])	self-cleavage kobs at 2500 uM GlcN6P (glucosamine-6-phosphate [3])	self-cleavage kobs at 10000 uM GlcN6P (glucosamine-6-phosphate [4])
G32U G38U U54G	< 1e-05 s⁻¹			
A36G U49A	< 1e-05 s⁻¹	< 1e-05 s⁻¹	< 1e-05 s⁻¹	< 1e-05 s⁻¹
C34A G37U A48G	< 1e-05 s⁻¹			
G35C A36G U49A	< 1e-05 s⁻¹	< 1e-05 s⁻¹	< 1e-05 s⁻¹	
C34A U49C	< 1e-05 s⁻¹	< 1e-05 s⁻¹	< 1e-05 s⁻¹	< 1e-05 s⁻¹
G43C U56A	< 1e-05 s⁻¹	< 1e-05 s⁻¹	< 1e-05 s⁻¹	< 1e-05 s⁻¹
A36G G38U	< 1e-05 s⁻¹			< 1e-05 s⁻¹
G41A G62C	< 1e-05 s⁻¹	< 1e-05 s⁻¹	< 1e-05 s⁻¹	
A39G G51U G59U	< 1e-05 s⁻¹	< 1e-05 s⁻¹		< 1e-05 s⁻¹
C34U A36G	< 1e-05 s⁻¹	< 1e-05 s⁻¹	< 1e-05 s⁻¹	
A42C G43C C68A C71A	< 1e-05 s⁻¹		< 1e-05 s⁻¹	
A36C A52C	< 1e-05 s⁻¹			< 1e-05 s⁻¹
G38A A64G	< 1e-05 s⁻¹			
G35C U47G U55G	< 1e-05 s⁻¹			< 1e-05 s⁻¹
G38C G41C	< 1e-05 s⁻¹	< 1e-05 s⁻¹	< 1e-05 s⁻¹	
C34U U47A A48G U69G	< 1e-05 s⁻¹			
G41U A52U U57C	< 1e-05 s⁻¹			
A36C U46G A52G G60U	< 1e-05 s⁻¹	< 1e-05 s⁻¹	< 1e-05 s⁻¹	
A33G G41A C70A	< 1e-05 s⁻¹	< 1e-05 s⁻¹		< 1e-05 s⁻¹
A36G C58A G60A	< 1e-05 s⁻¹	< 1e-05 s⁻¹		< 1e-05 s⁻¹
G44A A48G G51U G59A	< 1e-05 s⁻¹		< 1e-05 s⁻¹	
C34U C70G	0.000827 ± 0.0004 s⁻¹			
U45A U57C	3.83e-05 ± 1.6e-05 s⁻¹	3.94e-05 ± 8.9e-06 s⁻¹	0.000268 ± 4.2e-05 s⁻¹	0.000355 ± 4.8e-05 s⁻¹
A36C U56A	< 1e-05 s⁻¹	< 1e-05 s⁻¹	< 1e-05 s⁻¹	
A42C C58A	< 1e-05 s⁻¹	< 1e-05 s⁻¹		< 1e-05 s⁻¹
G37C G41C	< 1e-05 s⁻¹	< 1e-05 s⁻¹	< 1e-05 s⁻¹	

Variant	self-cleavage kobs at 160 uM GlcN6P (glucosamine-6-phosphate [1])	self-cleavage kobs at 640 uM GlcN6P (glucosamine-6-phosphate [2])	self-cleavage kobs at 2500 uM GlcN6P (glucosamine-6-phosphate [3])	self-cleavage kobs at 10000 uM GlcN6P (glucosamine-6-phosphate [4])
G41C G63A	< 1e-05 s⁻¹	< 1e-05 s⁻¹		
A33U A36C G43A C70G	< 1e-05 s⁻¹	< 1e-05 s⁻¹	< 1e-05 s⁻¹	
C34G U46A	< 1e-05 s⁻¹		< 1e-05 s⁻¹	< 1e-05 s⁻¹
A36C A52C C70U	< 1e-05 s⁻¹	< 1e-05 s⁻¹		
G43A U49C G66A C70G	< 1e-05 s⁻¹	< 1e-05 s⁻¹	< 1e-05 s⁻¹	
G35C A53G	< 1e-05 s⁻¹	< 1e-05 s⁻¹	< 1e-05 s⁻¹	< 1e-05 s⁻¹
A39U G40C U46C	5.92e-05 ± 1.4e-05 s⁻¹	0.000338 ± 5.3e-05 s⁻¹	0.000277 ± 7.4e-05 s⁻¹	
G40A G51C	< 1e-05 s⁻¹	< 1e-05 s⁻¹		< 1e-05 s⁻¹
G40C U56A	0.000154 ± 3.3e-05 s⁻¹	0.000308 ± 6.3e-05 s⁻¹	0.00115 ± 0.00026 s⁻¹	
A33U A64G	< 1e-05 s⁻¹			6.18e-05 ± 1.1e-05 s⁻¹
C34U G41C G66U	< 1e-05 s⁻¹	< 1e-05 s⁻¹	< 1e-05 s⁻¹	
G38A U54G C68A	5.08e-05 ± 2e-05 s⁻¹			
G41C U46G U57C	< 1e-05 s⁻¹	< 1e-05 s⁻¹	< 1e-05 s⁻¹	
A36C U46A	< 1e-05 s⁻¹		< 1e-05 s⁻¹	< 1e-05 s⁻¹
G32U A48U G60A	< 1e-05 s⁻¹			
G35C U55A	< 1e-05 s⁻¹	< 1e-05 s⁻¹	< 1e-05 s⁻¹	
G43C U45A C67U	0.000282 ± 9.2e-05 s⁻¹	0.000977 ± 0.00034 s⁻¹	0.00269 ± 0.00071 s⁻¹	
G40U G51U C58U	< 1e-05 s⁻¹			
C34U U47A	< 1e-05 s⁻¹		< 1e-05 s⁻¹	
G35C G63C	< 1e-05 s⁻¹	< 1e-05 s⁻¹	< 1e-05 s⁻¹	
G40A G44U C61A	< 1e-05 s⁻¹	< 1e-05 s⁻¹		< 1e-05 s⁻¹
A36C G66C	< 1e-05 s⁻¹	< 1e-05 s⁻¹		< 1e-05 s⁻¹
A36G G60C	< 1e-05 s⁻¹	< 1e-05 s⁻¹	< 1e-05 s⁻¹	< 1e-05 s⁻¹
G38C G51U U57C	< 1e-05 s⁻¹		< 1e-05 s⁻¹	
G44U U65G C70G	< 1e-05 s⁻¹		< 1e-05 s⁻¹	
A42U A52C C67A	< 1e-05 s⁻¹			

Variant	self-cleavage kobs at 160 uM GlcN6P (glucosamine-6-phosphate [1])	self-cleavage kobs at 640 uM GlcN6P (glucosamine-6-phosphate [2])	self-cleavage kobs at 2500 uM GlcN6P (glucosamine-6-phosphate [3])	self-cleavage kobs at 10000 uM GlcN6P (glucosamine-6-phosphate [4])
G40C A64U	< 1e-05 s⁻¹	< 1e-05 s⁻¹		
G35U G41U G43A	< 1e-05 s⁻¹	< 1e-05 s⁻¹	< 1e-05 s⁻¹	
A33C U57G	< 1e-05 s⁻¹			
A36G A64G C71U	< 1e-05 s⁻¹	< 1e-05 s⁻¹		
A39G G41A G59U G60U	< 1e-05 s⁻¹			
G43C A52C U57C	< 1e-05 s⁻¹	< 1e-05 s⁻¹		
A42G G51C G60U	< 1e-05 s⁻¹			
G37U C70U C71A	< 1e-05 s⁻¹			
G38U A52U	< 1e-05 s⁻¹	< 1e-05 s⁻¹		< 1e-05 s⁻¹
G37A C50G U69C	5.92e-05 ± 1.9e-05 s⁻¹	7.07e-05 ± 2.7e-05 s⁻¹		
G41C G43A G44C C68U C71U	< 1e-05 s⁻¹		< 1e-05 s⁻¹	
C34U U54A U69G	0.000126 ± 4.6e-05 s⁻¹	0.000598 ± 0.0002 s⁻¹	0.000128 ± 4.7e-05 s⁻¹	0.000125 ± 3.4e-05 s⁻¹
A33U G51U C58U	< 1e-05 s⁻¹			
A33U G37A	< 1e-05 s⁻¹			
G44U U49A U54A G62U	< 1e-05 s⁻¹	< 1e-05 s⁻¹	< 1e-05 s⁻¹	
A39C A42C U46C	< 1e-05 s⁻¹			
C34U G37U	< 1e-05 s⁻¹	< 1e-05 s⁻¹	< 1e-05 s⁻¹	< 1e-05 s⁻¹
A33U C61G C70U	< 1e-05 s⁻¹			
G35C U46A U56A C61U C68U	< 1e-05 s⁻¹		< 1e-05 s⁻¹	
C34A C50G	5.9e-05 ± 1.6e-05 s⁻¹	0.000448 ± 0.00021 s⁻¹		
G40A C61U C68G C70G C71G	< 1e-05 s⁻¹	< 1e-05 s⁻¹		
G35C C50U A53C	< 1e-05 s⁻¹	< 1e-05 s⁻¹	< 1e-05 s⁻¹	
A39U G40A A64G	0.000419 ± 0.00012 s⁻¹	0.000775 ± 0.00021 s⁻¹	0.00738 ± 0.0025 s⁻¹	
